Source: patent US20240167012

Experiments:
[1] = test system: T1, aspartic protease Rhodotorulapepsin
T1 sequence: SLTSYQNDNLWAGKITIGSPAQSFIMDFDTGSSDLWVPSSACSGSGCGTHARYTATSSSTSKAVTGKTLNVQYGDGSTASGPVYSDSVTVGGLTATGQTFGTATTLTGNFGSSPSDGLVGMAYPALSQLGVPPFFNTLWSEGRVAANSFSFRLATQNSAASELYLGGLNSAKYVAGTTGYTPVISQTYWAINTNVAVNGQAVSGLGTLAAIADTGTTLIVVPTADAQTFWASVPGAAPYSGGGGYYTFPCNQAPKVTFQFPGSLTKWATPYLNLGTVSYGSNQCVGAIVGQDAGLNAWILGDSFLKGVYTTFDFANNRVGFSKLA

[2] = test system: T2, gluten immunogenic peptide 33-mer from α-gliadin
T2 sequence: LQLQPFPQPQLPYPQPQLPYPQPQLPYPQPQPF

[3] = test system: T3, gluten immunogenic peptide 26-mer from γ-gliadin
T3 sequence: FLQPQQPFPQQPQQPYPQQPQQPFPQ

pepsin
resistance of the protease to pepsin hydrolysis, inferred from gliadin hydrolysis in the presence of pepsin [1]: the aspartic protease Rhodotorulapepsin is resistant to pepsin hydrolysis
hydrolysis of the 33-mer, RP-HPLC (pH 3.0 and pH 5.0) [2]: gluten immunogenic peptides 26-mer and 33-mer were not degraded after the same reaction time
hydrolysis of the 26-mer, RP-HPLC (pH 3.0 and pH 5.0) [3]: gluten immunogenic peptides 26-mer and 33-mer were not degraded after the same reaction time
hydrolysis of gliadin 7.5 mg/ml, SDS-PAGE (pH 3.0, 3 h) (gliadin): when only 250 µg/ml of pepsin was included in the enzyme mixture, gliadin was not completely hydrolyzed
hydrolysis of gliadin, SDS-PAGE of residual gliadin (pH 3.0, 37° C., enzyme:gliadin 1:500) (gliadin): gliadin was not hydrolyzed by pepsin even after 150 minutes of reaction
relative activity to hydrolyze gliadin, ELISA of residual gliadin (pH 2.5, 1.5 h, pepsin 1 mg/ml) (gliadin): the relative activity of the simulated gastric acid environment to hydrolyze gliadin is 13%
